Patent publication US20250066509A1 (SHANGHAI JMT BIO TECHNOLOGY, published 2025)
Like-named read-outs stand apart in the source and are kept apart here.

T1: human αKlotho extracellular segment protein (human, UniProt Q9UEF7 34-981)
T1 construct: extracellular domain
T1 sequence (looked up): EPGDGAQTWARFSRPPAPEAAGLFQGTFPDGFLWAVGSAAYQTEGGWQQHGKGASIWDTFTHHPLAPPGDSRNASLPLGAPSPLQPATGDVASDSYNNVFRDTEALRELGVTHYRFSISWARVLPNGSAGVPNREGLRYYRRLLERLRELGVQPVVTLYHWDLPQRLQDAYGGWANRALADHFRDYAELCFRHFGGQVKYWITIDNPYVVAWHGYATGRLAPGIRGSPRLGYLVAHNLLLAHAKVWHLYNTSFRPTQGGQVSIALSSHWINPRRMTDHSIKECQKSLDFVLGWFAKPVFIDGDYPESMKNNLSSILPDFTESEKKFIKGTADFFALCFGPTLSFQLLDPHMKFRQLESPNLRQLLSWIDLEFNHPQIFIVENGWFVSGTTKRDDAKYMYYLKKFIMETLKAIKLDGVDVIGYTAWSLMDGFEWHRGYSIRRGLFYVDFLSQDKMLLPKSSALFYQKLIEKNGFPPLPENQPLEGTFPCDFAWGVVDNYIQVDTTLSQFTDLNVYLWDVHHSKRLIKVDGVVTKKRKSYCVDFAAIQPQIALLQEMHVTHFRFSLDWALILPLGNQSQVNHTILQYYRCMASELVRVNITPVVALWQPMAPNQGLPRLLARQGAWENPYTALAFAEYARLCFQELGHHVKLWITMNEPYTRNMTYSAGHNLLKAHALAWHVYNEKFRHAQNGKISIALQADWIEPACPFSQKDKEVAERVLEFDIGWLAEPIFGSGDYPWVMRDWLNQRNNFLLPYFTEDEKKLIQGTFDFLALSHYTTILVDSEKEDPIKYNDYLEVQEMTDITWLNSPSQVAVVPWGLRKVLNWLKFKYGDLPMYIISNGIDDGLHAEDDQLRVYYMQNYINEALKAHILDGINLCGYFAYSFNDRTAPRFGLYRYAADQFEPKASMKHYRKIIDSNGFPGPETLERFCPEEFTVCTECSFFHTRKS

T2: human βKlotho extracellular segment protein (human, UniProt Q86Z14 53-996)
T2 construct: Captured by nickel plate or anti-His antibody, so His-tagged; also called human βKlotho extracellular protein
T2 sequence: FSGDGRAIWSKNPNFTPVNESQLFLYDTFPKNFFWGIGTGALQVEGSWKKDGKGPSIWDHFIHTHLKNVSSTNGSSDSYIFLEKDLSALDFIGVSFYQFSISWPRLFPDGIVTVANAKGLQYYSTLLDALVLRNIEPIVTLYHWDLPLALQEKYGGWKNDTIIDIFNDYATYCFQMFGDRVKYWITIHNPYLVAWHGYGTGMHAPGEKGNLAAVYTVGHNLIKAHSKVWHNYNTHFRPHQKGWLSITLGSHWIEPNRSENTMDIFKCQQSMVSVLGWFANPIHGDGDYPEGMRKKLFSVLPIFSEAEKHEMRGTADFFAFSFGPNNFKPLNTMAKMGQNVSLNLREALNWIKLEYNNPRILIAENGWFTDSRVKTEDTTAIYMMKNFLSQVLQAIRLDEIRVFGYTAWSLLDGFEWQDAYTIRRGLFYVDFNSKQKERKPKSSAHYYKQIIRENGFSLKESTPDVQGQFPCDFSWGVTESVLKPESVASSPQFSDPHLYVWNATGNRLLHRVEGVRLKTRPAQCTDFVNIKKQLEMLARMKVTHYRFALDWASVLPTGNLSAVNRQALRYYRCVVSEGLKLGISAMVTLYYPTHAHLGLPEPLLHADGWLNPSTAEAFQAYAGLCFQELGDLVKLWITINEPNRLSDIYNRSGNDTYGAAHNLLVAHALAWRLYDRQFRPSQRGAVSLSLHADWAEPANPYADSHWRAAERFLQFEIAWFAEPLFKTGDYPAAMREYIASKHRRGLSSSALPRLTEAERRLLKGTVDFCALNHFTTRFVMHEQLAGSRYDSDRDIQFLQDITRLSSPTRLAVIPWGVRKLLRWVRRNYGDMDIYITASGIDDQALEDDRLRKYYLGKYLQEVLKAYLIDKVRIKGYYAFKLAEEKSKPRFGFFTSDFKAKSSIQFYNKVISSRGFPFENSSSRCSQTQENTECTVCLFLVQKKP

B1: CB-8 (antibody, V domains shown)
VH: EVQLVQSGAEVKKPGASVKVSCKASGYTFTSYGISWVRQAPGQGLEWMGWISAYNGNTNYAQKLQGRVTMTTDTSTSTAYMELRSLRSDDTAVYYCATLYGSGSLYYWGQGTLVTVSS
VL: DIVMTQSPSSLSAPVGDRVTITCQASQDIRNYINWFQQKPGKAPKLLIYAASSLQSGVPSRFSGSGSGTDFTLTISSLQPEDFATYYCQQSYSTPQWTFGQGTKVEIK
B2: CB-8-42 (antibody, human IgG1, kappa, V domains shown)
VH: EVQLVQSGAEVKKPGASVKVSCKASGYTFTSYGISWVRQAPGQGLEWMGWISAYSGNTNYAQKLQGRVTMTTDTSTSTAYMELRSLRSDDTAVYYCATLLPSGSLYYWGQGTLVTVSS
VL: DIVMTQSPSSLSAPVGDRVTITCQASQDIRNYINWFQQKPGKAPKLLIYAASYLQSGVPSRFSGSGSGTDFTLTISSLQPEDFATYYCQQSYSTPQWTFGQGTKVEIKR
B3: CB-8-26 (antibody, human IgG1, V domains shown)
VH: EVQLVQSGAEVKKPGASVKVSCKASGYTFKSYGISWVRQAPGQGLEWMGWISAYNGRTNYAQKLQGRVTMTTDTSTSTAYMELRSLRSDDTAVYYCATLYGSGSLYYWGQGTLVTVSS
VL: DIVMTQSPSSLSAPVGDRVTITCQASQDIRNYINWFQQKPGKAPKLLIYAASGLQSGVPSRFSGSGSGTDFTLTISSLQPEDFATYYCQQSYSTPQWTFGQGTKVEIK
B4: CB-8-24 (antibody, V domains shown)
VH: EVQLVQSGAEVKKPGASVKVSCKASGYTFTSYGISWVRQAPGQGLEWMGWISAYNGNTNYAQKLQGRVTMTTDTSTSTAYMELRSLRSDDTAVYYCATLLPSGSLYYWGQGTLVTVSS
VL: DIVMTQSPSSLSAPVGDRVTITCQASQDIRNYINWFQQKPGKAPKLLIYAASSLQSGVPSRFSGSGSGTDFTLTISSLQPEDFATYYCQQSYSTPQWTFGQGTKVEIK
B5: CB-8-23 (antibody, human IgG1, V domains shown)
VH: EVQLVQSGAEVKKPGASVKVSCKASGYTFTSGGISWVRQAPGQGLEWMGWISAYNGRTNYAQKLQGRVTMTTDTSTSTAYMELRSLRSDDTAVYYCATLYGSGSLYYWGQGTLVTVSS
VL: DIVMTQSPSSLSAPVGDRVTITCQASQDIRNYINWFQQKPGKAPKLLIYAASFLQSGVPSRFSGSGSGTDFTLTISSLQPEDFATYYCQQSYSTPQWTFGQGTKVEIK
B6: CB-8-14 (antibody, human IgG1, V domains shown)
VH: EVQLVQSGAEVKKPGASVKVSCKASGYTFRSYGISWVRQAPGQGLEWMGWISAYTGNTNYAQKLQGRVTMTTDTSTSTAYMELRSLRSDDTAVYYCATLYGSGSLYYWGQGTLVTVSS
VL: DIVMTQSPSSLSAPVGDRVTITCQASQDIRNYINWFQQKPGKAPKLLIYAASSRQSGVPSRFSGSGSGTDFTLTISSLQPEDFATYYCQQSYSTPQWTFGQGTKVEIK
B7: CB-8-40 (antibody, human IgG1, V domains shown)
VH: EVQLVQSGAEVKKPGASVKVSCKASGYTFTSYGISWVRQAPGQGLEWMGWISAYSGNTNYAQKLQGRVTMTTDTSTSTAYMELRSLRSDDTAVYYCATLYGSGSLYYWGQGTLVTVSS
VL: DIVMTQSPSSLSAPVGDRVTITCQASQDIRNYINWFQQKPGKAPKLLIYAASYLQSGVPSRFSGSGSGTDFTLTISSLQPEDFATYYCQQSYSTPQWTFGQGTKVEIK
B8: CB-8-13 (antibody, human IgG1, V domains shown)
VH: EVQLVQSGAEVKKPGASVKVSCKASGYRFTSYGISWVRQAPGQGLEWMGWISAYNGRTNYAQKLQGRVTMTTDTSTSTAYMELRSLRSDDTAVYYCATLYGSGSLYYWGQGTLVTVSS
VL: DIVMTQSPSSLSAPVGDRVTITCQASQDIRNYINWFQQKPGKAPKLLIYAASRLQSGVPSRFSGSGSGTDFTLTISSLQPEDFATYYCQQSYSTPQWTFGQGTKVEIK
B9: CB-8-37 (antibody, human IgG1, V domains shown)
VH: EVQLVQSGAEVKKPGASVKVSCKASGYAFTSYGISWVRQAPGQGLEWMGWISAYSGNTNYAQKLQGRVTMTTDTSTSTAYMELRSLRSDDTAVYYCATLYGSGSLYYWGQGTLVTVSS
VL: DIVMTQSPSSLSAPVGDRVTITCQASQDIRNYINWFQQKPGKAPKLLIYAASFLQSGVPSRFSGSGSGTDFTLTISSLQPEDFATYYCQQSYSTPQWTFGQGTKVEIK
B10: CB-8-41 (antibody, human IgG1, V domains shown)
VH: EVQLVQSGAEVKKPGASVKVSCKASGYLFTSYGISWVRQAPGQGLEWMGWISAYTGNTNYAQKLQGRVTMTTDTSTSTAYMELRSLRSDDTAVYYCATLYGSGSLYYWGQGTLVTVSS
VL: DIVMTQSPSSLSAPVGDRVTITCQASQDIRNYINWFQQKPGKAPKLLIYAASHLQSGVPSRFSGSGSGTDFTLTISSLQPEDFATYYCQQSYSTPQWTFGQGTKVEIK

What was measured:
[1] = target: T3, cynomolgus monkey FGFR1c/βKlotho receptor (cynomolgus monkey, UniProt A0A2K5WB58 1-1044); assay: cell-based or functional assay
T3 sequence (A0A2K5WB58 entry or part of it): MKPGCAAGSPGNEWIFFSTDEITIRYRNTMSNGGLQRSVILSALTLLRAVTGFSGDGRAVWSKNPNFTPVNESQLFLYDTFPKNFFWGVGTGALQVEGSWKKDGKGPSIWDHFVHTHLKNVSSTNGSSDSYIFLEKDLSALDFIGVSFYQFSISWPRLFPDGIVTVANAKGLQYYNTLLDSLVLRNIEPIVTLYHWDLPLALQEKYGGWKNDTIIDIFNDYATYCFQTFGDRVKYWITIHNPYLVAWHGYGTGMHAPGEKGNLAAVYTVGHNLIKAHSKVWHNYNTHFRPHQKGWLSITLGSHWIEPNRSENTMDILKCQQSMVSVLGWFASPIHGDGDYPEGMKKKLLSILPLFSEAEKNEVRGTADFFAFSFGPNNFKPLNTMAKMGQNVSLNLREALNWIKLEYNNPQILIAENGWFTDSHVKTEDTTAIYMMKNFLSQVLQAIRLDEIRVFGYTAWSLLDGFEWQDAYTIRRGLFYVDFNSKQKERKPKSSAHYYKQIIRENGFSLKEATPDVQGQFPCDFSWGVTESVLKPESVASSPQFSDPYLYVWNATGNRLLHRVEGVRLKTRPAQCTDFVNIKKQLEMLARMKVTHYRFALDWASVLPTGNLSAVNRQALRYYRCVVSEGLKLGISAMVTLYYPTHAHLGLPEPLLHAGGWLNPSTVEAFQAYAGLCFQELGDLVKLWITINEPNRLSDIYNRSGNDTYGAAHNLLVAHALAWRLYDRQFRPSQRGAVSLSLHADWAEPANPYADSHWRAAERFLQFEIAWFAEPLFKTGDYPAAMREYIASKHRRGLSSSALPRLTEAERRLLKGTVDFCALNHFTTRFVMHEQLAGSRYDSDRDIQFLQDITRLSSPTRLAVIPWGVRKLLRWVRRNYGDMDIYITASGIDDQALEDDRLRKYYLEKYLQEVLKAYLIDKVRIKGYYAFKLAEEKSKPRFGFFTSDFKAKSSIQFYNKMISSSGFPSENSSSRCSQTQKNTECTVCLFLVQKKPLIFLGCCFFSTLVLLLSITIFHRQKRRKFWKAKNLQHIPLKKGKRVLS

[2] = target: T3, cynomolgus monkey FGFR1c/βKlotho …; assay: cell-based or functional assay; remark: listed apart in the source
[3] = target: T1, human αKlotho extracellular segment …; assay: ELISA; extracellular segment protein on nickel-coated plate, antibody titrated, anti-human IgG Fab-HRP
Protocol: In this Example, the binding of some antibodies in Example 1 to human βKlotho, human αKlotho, and mouse βKlotho was detected using an ELISA assay as described below. A solution of human βKlotho (R&D systems), human αKlotho (R&D systems), or mouse βKlotho (R&D systems) extracellular segment protein at a specified concentration was added to a nickel-coated 96-well plate (Pierce) and the plate was incubated overnight at room temperature. The next day, the plate was blocked with PBS/1% BSA, and then antibodies at various concentrations were added to the wells. After incubating the plate for 1.5 hours at room temperature, a HRP-labeled anti-human IgG Fab secondary antibody was added to the wells and the plate was incubated for 30 minutes at room temperature. After the substrate was added and reacted at room temperature for 15 minutes, the reaction-stopping solution was added. OD₄₅₀ values were read. Exemplary data of antibodies' binding to human βKlotho, human αKlotho, and mouse βKlotho in the ELISA assay are as follows.

[4] = target: human FGFR4/βKlotho receptor (human, UniProt P22455 22-802); assay: cell-based or functional assay
human FGFR4/βKlotho receptor, sequence (P22455 22-802, chain 1 of 2): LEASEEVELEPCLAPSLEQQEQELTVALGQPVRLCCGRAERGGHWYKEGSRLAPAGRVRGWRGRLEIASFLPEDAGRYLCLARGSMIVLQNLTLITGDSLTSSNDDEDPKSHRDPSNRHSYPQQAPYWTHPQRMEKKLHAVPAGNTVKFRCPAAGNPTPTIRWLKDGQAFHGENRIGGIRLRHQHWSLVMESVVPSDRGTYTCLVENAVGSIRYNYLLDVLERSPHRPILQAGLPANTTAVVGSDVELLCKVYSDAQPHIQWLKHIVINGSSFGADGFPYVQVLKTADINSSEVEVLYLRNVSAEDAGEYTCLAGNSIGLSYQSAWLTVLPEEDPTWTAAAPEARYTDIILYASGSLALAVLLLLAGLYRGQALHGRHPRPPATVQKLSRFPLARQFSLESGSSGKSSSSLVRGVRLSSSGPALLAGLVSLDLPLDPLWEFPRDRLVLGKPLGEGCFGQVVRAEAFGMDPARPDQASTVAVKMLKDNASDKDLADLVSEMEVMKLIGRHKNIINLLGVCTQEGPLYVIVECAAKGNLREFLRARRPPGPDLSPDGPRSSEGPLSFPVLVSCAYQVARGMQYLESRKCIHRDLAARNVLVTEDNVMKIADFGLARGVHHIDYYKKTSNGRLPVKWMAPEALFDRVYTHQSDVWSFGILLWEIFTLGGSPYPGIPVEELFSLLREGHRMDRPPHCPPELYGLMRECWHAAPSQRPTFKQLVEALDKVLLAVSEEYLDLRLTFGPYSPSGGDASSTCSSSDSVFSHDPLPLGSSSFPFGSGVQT
human FGFR4/βKlotho receptor, sequence (chain, as listed by the source, chain 2 of 2): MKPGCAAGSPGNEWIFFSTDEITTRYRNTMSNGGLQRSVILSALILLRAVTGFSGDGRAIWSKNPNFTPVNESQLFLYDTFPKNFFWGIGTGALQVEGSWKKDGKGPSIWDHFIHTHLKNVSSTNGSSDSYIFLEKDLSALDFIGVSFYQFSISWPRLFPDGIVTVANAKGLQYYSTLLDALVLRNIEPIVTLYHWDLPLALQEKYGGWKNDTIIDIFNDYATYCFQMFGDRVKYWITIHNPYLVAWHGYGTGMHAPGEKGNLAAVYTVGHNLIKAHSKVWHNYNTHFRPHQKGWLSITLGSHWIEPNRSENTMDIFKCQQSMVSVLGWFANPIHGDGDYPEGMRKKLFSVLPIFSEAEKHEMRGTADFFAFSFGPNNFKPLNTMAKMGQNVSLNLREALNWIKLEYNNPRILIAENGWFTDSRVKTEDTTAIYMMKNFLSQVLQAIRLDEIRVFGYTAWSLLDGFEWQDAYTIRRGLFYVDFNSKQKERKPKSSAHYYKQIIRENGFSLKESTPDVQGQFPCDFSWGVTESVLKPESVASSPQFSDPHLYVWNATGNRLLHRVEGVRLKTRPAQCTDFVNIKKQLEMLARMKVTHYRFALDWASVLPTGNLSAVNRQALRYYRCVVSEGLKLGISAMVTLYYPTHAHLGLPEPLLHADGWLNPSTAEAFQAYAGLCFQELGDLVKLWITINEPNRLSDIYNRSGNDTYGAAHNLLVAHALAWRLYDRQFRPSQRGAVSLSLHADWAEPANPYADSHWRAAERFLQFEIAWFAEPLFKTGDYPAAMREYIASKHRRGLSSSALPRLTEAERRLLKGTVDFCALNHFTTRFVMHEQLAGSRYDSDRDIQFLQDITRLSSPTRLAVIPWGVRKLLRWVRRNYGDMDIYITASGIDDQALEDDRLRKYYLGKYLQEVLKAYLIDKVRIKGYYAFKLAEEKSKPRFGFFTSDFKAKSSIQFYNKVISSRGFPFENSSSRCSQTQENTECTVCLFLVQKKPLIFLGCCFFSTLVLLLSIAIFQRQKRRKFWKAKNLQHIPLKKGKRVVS

[5] = target: T3, cynomolgus monkey FGFR1c/βKlotho …; assay: cell-based or functional assay; remark: listed apart in the source
[6] = target: T2, human βKlotho extracellular segment …; assay: Gator BLI; antibody captured on Protein A probe, human βKlotho ECD 400 nM-50 nM in solution
Protocol: The antibodies described above were tested for affinity using Gator (Gator bio). Briefly, an antibody was first captured using a probe coated with Protein A (Gator bio). After the baseline was monitored for 60 seconds, the antibody-to-the antigen binding was determined with the human βKlotho extracellular segment protein described above at varying concentrations (400 nM-50 nM). Then, the dissociation was detected in a K buffer (Gator bio). Meanwhile, the function of an antibody to activate the human or cynomolgus monkey FGFR1c/βKlotho receptor was detected using the reporter-based assay described in Example 2.

| Binder | EC50 for antibody-induced cell activation, as determined by the reporter-based assay [1] | also measured |
| --- | --- | --- |
| B1 | 2.86 nM | EC50, luciferase reporter-based assay (receptor activation) [2]: 4.89 nM; EC50 [3]: > 100 nM |
| B2 |  | EC50, luciferase reporter-based assay (receptor activation) [4]: > 100 nM; EC50, luciferase reporter-based assay (receptor activation) [5]: 0.17 nM |
| B3 | 0.71 nM |  |
| B4 | 0.15 nM |  |
| B5 | 0.55 nM | Kd [6]: 7.08 nM; koff [6]: 0.000173 s⁻¹; kon [6]: 24500 M⁻¹ s⁻¹ |
| B6 | 1.08 nM |  |
| B7 | 0.49 nM |  |
| B8 | 0.88 nM |  |
| B9 | 0.54 nM |  |
| B10 | 1.57 nM |  |
